B1: LCOR (parent)
chain: PCAGSTSLSHSPGCSSTQGNGRPG

Variants of: B1
Experiment: protein stability index of a GFP-peptide fusion (GPS, HEK-293T) (PSI 1-6); higher = more stable
Conditions: c terminus: a fixed tail appended
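Further: lentivirally expressed fusions sorted by FACS into six bins by GFP to DsRed ratio, PSI derived from sequencing read proportions per bin multiplied by bin number.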

Protein stability index: each site, then its substitutions
R22: L 2.47, H 3.96, Q 3.98, K 4.23, E 4.55, T 3.46, G 3.06, I 3.97, A 4.1, W 2.55, D 4.3, F 3.37, P 3.83, N 4.2, M 3.78, C 3.92, S 5.07, Y 4.14
G4: E 4.2, M 2.92, H 3.52, A 2.7, L 2.43, S 3.56, F 1.98, Q 4.2, P 4.17, R 4.25, I 2.28, T 3.71, K 4.38
L8: P 4.24, V 3.58, N 4.15, Y 4.95, I 3.67, T 4.15, K 4.34, C 4.55, F 3.91, G 4.25, E 4.45, R 3.87
S11: A 2.63, Y 2.9, H 3.3, G 2.96, I 2.18, V 2.86, C 1.94, W 2.74, R 2.53, Q 3.27, N 2.75, M 3.28, F 3.1, D 4, P 3.16, K 2.81, E 3.73
H10: R 3.41, I 3.89, L 4.39, E 5.05, P 3.37, Y 4.3, C 2.72, K 4.86, Q 4.94, S 4.29, A 4.02, T 4.4, D 4.89
S5: R 2.71, P 2.15, T 1.75, W 3.35, D 4.27, A 2.98, G 4.2, N 2.67, F 3.35, E 3.94, K 4.35, I 1.61, M 2.9, Y 2.41
Q18: P 2.89, E 3.34, F 2.27, G 3.53, S 3.55, Y 2.75, N 3.51, I 2.48, R 3.01, M 3.01, K 3.77, T 3.37, C 2.73, V 2.5, D 2.98
C2: W 4.09, K 4.48, V 4.04, L 4.76, Y 3.55, F 3.99, H 4.99, N 4.74, A 2.92, T 3.63, I 2.92, Q 4.65, S 3.28, R 5.27
S7: F 2.72, M 1.82, L 1.64, W 3.05, N 3.43, D 4.82, Y 2.87, H 2.42, A 2.19, K 4, T 3.19, Q 3.23, I 1.92
T17: P 3.51, S 2.53, K 3.44, M 2.17, W 1.89, A 3.08, N 2.29, E 3.47, F 1.81, C 1.47, Y 2.28, V 1.75, H 3.36, I 2.02
C14: L 4.34, K 5.01, Q 5.14, T 4.93, V 4.85, A 4.12, P 4.48, Y 3.83, R 3.86, S 5.88, F 4.71, M 4.53, E 4.9, H 4.93, G 5.25
S16: Q 3.03, A 3, K 3.37, E 3.18, H 2.21, D 4.05, N 3.53, M 2.22, P 4.1, G 3.74, L 1.6, Y 2.02, F 2.87, I 2.07, R 4.34
A3: E 2.77, G 3.4, L 3.93, C 4.78, T 3.06, Y 3.21, K 4.69, I 4.1, V 3.87, H 4, D 4.98, S 3.73, M 3.63, Q 4.08
S15: E 3.55, G 2.49, Y 2.92, K 2.39, V 3.3, H 2.4, A 2.91, D 4.31, Q 2.79, W 2.85, F 2.83, L 3.36, I 2.8, M 2.95
P12: R 2.92, V 3.15, H 3.9, M 3.12, G 4.15, Y 3.39, F 1.91, E 4.43, N 4.11, C 1.01, D 4.35, S 3.55, Q 3.02, A 3.99, I 2.73, L 3.23, K 3.86, T 4.1
G13: S 3.46, R 3.6, N 3.61, K 3.39, D 3.23, F 2.93, H 3.46, Y 2.53, T 2.72, C 1.44, M 2.56, Q 2.56
G24: A 3.38, I 3.09, E 2.65, F 2.95, H 3.81, D 3.72, C 2.48
P1: M 3.39, L 3.57, N 4.33, S 3.12, R 3.63, Y 2.96
S9: R 1.04, D 4.12, Y 1.89, G 2.85, E 3.85, F 2.4, K 3.62, M 3.48, P 3.79, T 3, Q 3.48, W 2.66, H 2.36
G21: Q 3.36, H 2.31, K 3.79, R 3.29, F 1.98, T 2.1, C 2.85, W 2.34, D 3.95, N 3.57, E 3.96, A 3.63, P 2.53, I 3.54, Y 2.92, S 2.81
G19: E 3.8, W 1.91, L 2.91, H 2.32, C 2.56, F 3.15, P 3.31, I 2.9, D 3.91, Q 3.64, T 3.24, S 3.84, A 3.65, V 3.19, M 2.88, R 2.32, Y 2.5, N 2.94, K 3.48
T6: W 2.84, V 3.9, H 3.11, R 4.93, K 2.71, E 5.02, Y 3.39, D 4.35, S 2.77, P 3.69, F 2.91
P23: D 4.15, M 2.98, N 3.79, I 3.02, Y 2.75, V 3.39, T 3.34, K 3.78, A 3.78, R 3.22, H 3.88, L 3.24, Q 2.03, E 3.39, W 2.44, S 3.44, F 2.46, C 3.45
N20: L 2.91, V 3.58, I 2.19, S 3.1, R 3.07, H 2.79, F 2.66, T 2.35, M 2.83, E 2.88, A 4.09, D 3.44, P 2.51
